The test deals with estrogen receptor α (as used in the TR-FRET assay) (UniProt P03372). The test is described as follows: FRET or BRET.
Chain of estrogen receptor α (as used in the TR-FRET assay) (P03372 311-547): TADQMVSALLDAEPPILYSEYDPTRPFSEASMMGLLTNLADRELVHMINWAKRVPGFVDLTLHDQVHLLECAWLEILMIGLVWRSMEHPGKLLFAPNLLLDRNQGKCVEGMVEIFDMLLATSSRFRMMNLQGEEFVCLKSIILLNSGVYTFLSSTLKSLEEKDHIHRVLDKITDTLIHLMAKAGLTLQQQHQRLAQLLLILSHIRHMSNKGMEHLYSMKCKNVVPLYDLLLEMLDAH

Consider SRC2-WT (peptide), for which the IC50 – broadly, the concentration that gives 50% inhibition – was 1.1 µM. This counts as single-digit micromolar.

The values are drawn from publication PMC5993042.
